Biological target: Canavalia villosa seed lectin (Cvill) (Canavalia villosa)
Experiment: crystal structure; Cvill with alpha-methyl-D-mannopyranoside; 17.5% PEG1000, 0.1 M potassium phosphate citrate pH 4.2, 200 mM lithium sulfate, room temperature; space group I222, one monomer per asymmetric unit; tetramer formed by the crystal's 222 symmetry, dimers and tetramers predicted with PISA

Canavalia villosa seed lectin (Cvill) (natural protein)
stoichiometry N: 4
